Molecular target: Streptococcus pyogenes Cas9 (SpCas9) protein, wild type (Streptococcus pyogenes) (UniProt Q99ZW2)

M13 phage major coat protein G8P periplasmic domain peptide (M13 G8PPD)
inhibition of the in vitro DNA cleavage activity of 50 nM SpCas9, peptide added before sgRNA (IC50): 5 µM

— article PMC7045643, “Allosteric inhibition of CRISPR-Cas9 by bacteriophage-derived peptides” (Genome Biology, 2020)
